What all share (settings): both partners purified
Assay [1] deals with T1, IL-17A (human, UniProt Q16552).
T1 construct: IL-17A
The assay is described as follows: ELISA; ELISA-based assay of blocking the interaction of IL-17A with IL-17RA, in duplicate, n = 3. (An ELISA detects its analyte on a solid surface through an enzyme-linked reagent.)

The target of assay [2] is T1, IL-17A. The experiment in a line: ELISA; direct binding ELISA to IL-17A or VEGF, measured in duplicate, n = 2; who was coated is not told.
Assay [3] has as its target T1, IL-17A. The experiment in a line: SPR; Biacore, n = 3. On the technique in general: In SPR one partner is held on a chip, and binding of the other changes the refractive index at the surface.
For assay [4], the target named is T2, VEGF (UniProt P15692 1-395).
T2 construct: vascular endothelial growth factor (VEGF); Probably VEGF165 (surmised); also called vascular endothelial growth factor
The assay is described as follows: ELISA; direct binding ELISA to IL-17A or VEGF, measured in duplicate, n = 2; who was coated is not told.

T1 sequence (Q16552 24-155): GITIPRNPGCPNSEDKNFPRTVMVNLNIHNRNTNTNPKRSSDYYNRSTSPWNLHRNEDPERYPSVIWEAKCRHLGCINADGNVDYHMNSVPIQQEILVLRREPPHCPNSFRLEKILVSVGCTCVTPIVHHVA
T2 sequence (P15692 whole entry): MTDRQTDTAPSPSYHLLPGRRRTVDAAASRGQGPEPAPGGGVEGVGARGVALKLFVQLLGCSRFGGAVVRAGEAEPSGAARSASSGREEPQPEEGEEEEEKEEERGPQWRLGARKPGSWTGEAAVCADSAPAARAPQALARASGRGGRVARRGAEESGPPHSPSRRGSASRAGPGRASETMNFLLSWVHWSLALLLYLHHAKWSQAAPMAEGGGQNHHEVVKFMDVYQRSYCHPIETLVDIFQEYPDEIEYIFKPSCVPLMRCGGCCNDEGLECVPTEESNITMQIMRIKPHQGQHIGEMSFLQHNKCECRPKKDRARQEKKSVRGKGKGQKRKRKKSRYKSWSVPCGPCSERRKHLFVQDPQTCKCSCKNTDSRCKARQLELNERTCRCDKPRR

B1: bispecific fusion protein 17V05 (bispecific antibody, V domains shown)
VH: EVQLVESGGGLVQPGGSLRLSCAASGFTFSSFDMSWGRQAPGKRLEWVAFMSSGGSTYYPDSVKGRFTISRDNSKNTLYLQMNSLRAEDTAVYYCARGERYGSYWGQGTLVTVSS
VL: DIQMTQSPSSLSASVGDRVTITCKASDHINNWLAWYQQKPGKAPKLLISGATSLETGVPSRFSGSGSGTDYTLTISSLQPEDFATYYCQQYWSTPFTFGSGTKLEIK
notes: heavy chain of the clinical stage anti-IL-17A mAb 608 (Sunshine Guojian Pharmaceutical); linker, printed as (G4S) x 3; light chain of the anti-IL-17A mAb 608; Variant of 17V01 with M464A in D2; Two copies of D2, one at the C-terminus of each heavy chain of 608; also called bispecific anti-IL17/VEGF fusion trap; source: 293HEK cells, one-step purification with protein A chromatography (told of the …)
Take B1: the IC50 in assay [1] is 2.77 nM. In assay [2], this molecule had a 50% effective concentration (EC50) of 0.05 nM. This molecule showed an equilibrium dissociation constant (Kd) in assay [3] of 0.0184 nM.

B2: D2-Fc, a fusion protein with D2 fused to the N-terminus of an Fc (Fc fusion)
chain: SDTGRPFVEMYSEIPEIIHMTEGRELVIPCRVTSPNITVTLKKFPLDTLIPDGKRIIWDSRKGFIISNATYKEIGLLTCEATVNGHLYKTNYLTHRQTNTIID
modifications: Limits are not printed. VEGFR1 D2 is taken as S129-D231, the aflibercept / Flt1 D2 convention. The Fc carrier is omitted; two copies assume an Fc dimer. The printed clip site M464/Y465 (fusion …)
The molecule B2 returned a 50% effective concentration (EC50) in assay [4] of 0.39 nM.

By IC50 is commonly meant the midpoint of a concentration-inhibition curve. One may read the EC50 as the concentration needed to bring the measured effect to its halfway point. A high value points to weaker potency. Usually Kd stands for the constant that tells how readily two partners part at equilibrium.

The record behind these values is paper PMC11681983 (Biochemistry Research International, 2024).
